Measured values taken from article PMC10427004, “Restoration of energy homeostasis under oxidative stress: Duo synergistic AMPK pathways regulating arginine kinases” (PLOS Genetics, 2023).

How the values were obtained:
[1] = system: Nc1ncnc2c1ncn2[C@@H]1O[C@H](COP(=O)(O)OP(=O)(O)O)[C@@H](O)[C@H]1O; assay: hexokinase / glucose-6-phosphate dehydrogenase coupled assay, A340, Lineweaver-Burk; assay type: biochemical, Tribolium castaneum; details: 5 mM phospho-L-arginine, 20 mM MgCl2, pH 7.5, 30 °C
[2] = system: Nc1ncnc2c1ncn2[C@@H]1O[C@H](COP(=O)(O)OP(=O)(O)OP(=O)(O)O)[C@@H](O)[C@H]1O; assay: pyruvate kinase / lactate dehydrogenase coupled assay, A340, Lineweaver-Burk; assay type: biochemical, Tribolium castaneum; details: 5 mM L-arginine, 20 mM MgCl2, pH 7.5, 30 °C

| Substance | Km [1] [mM] | Km [2] [mM] |
| --- | --- | --- |
| 6×His-TcAK1 (Tribolium castaneum; S129D) | 19.4 | 4.5 |
| 6×His-TcAK1 (Tribolium castaneum; T247D) | 10.6 | 13.0 |
